Results published in patent publication US8945864B2, “Method of determining 1,5-anhydroglucitol, and reagent composition for determining 1,5-anhydroglucitol” (Ikeda Food Research Co., Ltd., priority 2006, dated 2015).

B1: sorbose dehydrogenase (Sinorhizobium meliloti 1021) (protein)
chain: MMEGFDYVIVGGGSSGCVLAARLSENPSVRVCLIEAGGRDRHPLIHMPVGFAKLTAGPMTWGLTTAPQKHANNREIPYAQARVLGGGSSINAEVYTRGHPRDYDRWVEEGADGWSFQEVKPYFLRSEGNTILSGEWHGTDGPLGVSNLPDPQPMTRAFVQSCQELGIPYNPDFNGPVQEGAGVYQTTIRNSRRCSAAVGYLRPALARKNLMLITGALVLRIVFQGRRAVGVEYSTGGAAKIARAESEVLVTSGAIGTPKLMMLSGVGPAASLRSHGIDVVQDMAGVGQNLHDHFGVDIVAELKGHDSLDKYNKFHWMLLAGIEYALFKSGPVASNVVEGGAFWYGDRASPYPDLQFHFLAGAGAEAGVPSVPKGSSGVTLNSYTVRPKSRGSVTLRSADPRALPIVDPNFLDDPDDLRISVEGIRISREIFGQPSLQKYIKTIRFPDESVRTQADFEAYARQYGRTSYHPTCTCKMGRDDMSVVDPQLRVHGLDGIRICDSSVMPSLVGSNTNAATIMIGEKAADLIRGNI
B2: sorbose dehydrogenase: recombinant sorbose dehydrogenase from Sinorhizobium sp. 97507, amino acid sequence SEQ ID NO: 2, produced in E. coli JM109/pUCNNT2_AGD1 (protein)
chain: B1 chain
modifications: Sinorhizobium sp. 97507

Tests used:
[1] = substrate: OC[C@H]1OC[C@H](O)[C@@H](O)[C@@H]1O; experiment: Km value of sorbose dehydrogenase; format: biochemical, Sinorhizobium sp. 97507; details: other: Km of the sorbose dehydrogenase to the substrate; pH 7.0; 37.0 °C
Method: (§1) One mL of a 0.1 M potassium phosphate buffer, pH 7.0, 1.0 mL of 1.0 M L-sorbose, 0.14 mL of 3 mM 2,6-dichlorophenol indophenol (DCIP), 0.2 mL of 3 mM 1-methoxy-5-methylphenazinium methyl sulfate, and 0.61 mL of water were added to a 3 mL quartz cell, and the quartz cell was set to a spectrophotometer equipped with a thermostat cell holder, and incubated at 37° C. for ten minutes. Then, 0.05 mL of the enzyme solution was added to the quartz cell, and changes in absorbance of DCIP at 600 nm (AABS600/min) was measured at 37° C. As the molar extinction coefficient of DCIP at pH 7.0 is known as 16.3 mM^−1, and the amount of enzyme that reduced 1 μmol of DCIP for one minute is defined as one unit. Following the definition, the concentration of enzyme activity was calculated based on the following equation. enzyme activity (units/mL)=(−ΔABS600/min×3.0×dilution rate)/(16.3×1.0×0.05)
(§2) Measurement conditions in the above “method of measuring enzyme activity” were suitably modified as necessary, and the optimal pH, pH stability, optimal temperature, temperature stability, substrate specificity, Km value, total molecular weight, subunit molecular weight, inhibitor, and product of the enzyme reaction were identified. The properties of the enzyme were evaluated in accordance with the following tests.
[…]. […]

[2] = substrate: OCC1(O)OC[C@H](O)[C@@H](O)[C@@H]1O; experiment: Km value of sorbose dehydrogenase; format: biochemical, Sinorhizobium sp. 97507; details: other: Km of the sorbose dehydrogenase to the substrate; pH 7.0; 37.0 °C
Method: as §1, §2
[…]. […]

[3] = Optimal pH of sorbose dehydrogenase; format: biochemical; details: buffers pH 3.71-9.11, 33.3 mM; FIG. 3
[4] = Optimal temperature of sorbose dehydrogenase; format: biochemical; details: 50 mM potassium phosphate buffer, pH 7.0; 35° C. to 70° C.; FIG. 5
[5] = Temperature stability of sorbose dehydrogenase; format: physicochemical; details: pH 7.0, FIG. 6

Row | Molecule | Km [1] | Km [2] | Optimal pH [3] | Optimal temperature [4] | Residual ratio of enzyme activity ([5]; 45° C. for ten minutes) | Temperature at which the enzyme is stable ([5]; ten minutes)
1 | B1 | 82.5 mM | 65.6 mM |  |  |  | 
2 | B2 |  |  | 8.0 | around 60 °C | 77% | ≤ 45 °C
